The results in this text go back to article PMC8290593, “PTD-mediated delivery of α-globin chain into Κ-562 erythroleukemia cells and α-thalassemic (HBH) patients’ RBCs ex vivo in the frame of Protein Replacement Therapy” (Journal of Biological Research, 2021).

The data set concerns the molecule itself. Nature of the data set: SDS-PAGE and Western blot; recombinant protein extracts (bacterial inclusion bodies in 1 M L-Arg pH 8.0, and soluble proteins purified by Ni2+-NTA) on 15% SDS-PAGE, immunoblotted with anti-His.IgG.

B1: 10xHis-Xa_(SITE)-α-globin-HA (natural protein)
chain: not shown
notes: A factor Xa site (Xa_(SITE), from pET-16b) lies between the 10xHis tag and α-globin. ~18.7 kDa as printed; also called α-monomer; recombinant α-globin chain; source: E. coli CD43 (DE3), pET-16b; also as bacterial inclusion bodies dissolved in 1 M L-Arg; not shown: 10xHis, N-terminal, kept; HA, C-terminal, kept
As to B1, the binding result is recorded as “binds”.
